Laboratory results taken from US9938505B2, “Polypeptide composition and culture method for pluripotent stem cell using same” (FUJIFILM Corporation, priority 2013, dated 2018).

Legend:
[1] = Aggregation after dialysis (removal of urea); assay type: physicochemical; details: after stepwise dialysis against PBS, 1.5 M NaCl, 0.5 M L-arginine, 1 mM EDTA, pH 7.4
Experimental: For RCP-1 to RCP-10 and RCP-17, each of the purified polypeptide solutions was dialyzed using SLIDE-A-LIZER (trade name, 3.5 K MWCO.). Basically, by using a dialysis buffer (PBS, 1.5 M NaCl, 0.5 M L-arginine, 1 mM EDTA, pH 7.4) as an outer dialysate, urea was removed by stepwise dialysis. The concentration of the end-product of dialysis was calculated from the absorbence at 280 nm by using NANODROP (trade name, Thermo Fisher Scientific Inc.).
Furthermore, the indices of hydrophobicity determined for each of the amino acids were summed up, the obtained value was divided by the number of the amino acids, and the outcome was determined as the GRAVY value (see Kyte J., Doolittle R. F. (1982), J. Mol. Biol, 157: 105-132). The GRAVY value is an index of the hydrophilicity and hydrophobicity of a polypeptide calculated from the degree of hydrophobicity of the amino acids contained in each polypeptide. The greater the GRAVY value, the more the polypeptide is hydrophobic, and the smaller the GRAVY value, the more the polypeptide is hydrophilic. The results are shown in Table 4. • Whether or not aggregation was occurred was evaluated based on the scale of G, A, and B as shown below. The results are summarized in Table 4. • G: The formation of an aggregate was not observed. • A: The formation of particles having a particle size of about 100 nm was observed. • B: The formation of an aggregation of particles having a particle size of equal to or greater than 1 mm was visually observed.

iPS cells [2] = assay: Cell adhesiveness evaluation 3 (RCP-1 at 125 to 1,000 pmol/cm^2); assay type: cell-based, human; details: amount added equal to or greater than 125 pmol/cm^2
Experimental: The cell adhesiveness was evaluated in the same manner as in <Cell adhesiveness evaluation 1>, except that RCP-1 was used after the concentration thereof was adjusted to 125 pmol/cm^2 to 1,000 pmol/cm^2 by using PBS. In Table 9, the cell adhesion rate is expressed as relative value calculated by regarding a cell adhesion rate with respect to the culture vessel, onto which natural vitronectin is adsorbed at a concentration of 130 pmol/cm^2, as being 100. N=3.

iPS cells [3] = assay: Growth evaluation, growth curves over 8 days; assay type: cell-based, human; details: FIG. 2
Experimental: The iPS cells collected in the same manner as in <Cell adhesiveness evaluation 1> were seeded into a 96-well plate, onto which RCP-1, RCP-11, and natural human vitronectin were adsorbed, at a ratio of 250 cells/well and cultured for 8 days in a 5% CO2 incubator at 37° C. The number of adhesive cells after different days of culture was measured in the same manner as in <Cell adhesiveness evaluation 1>, thereby obtaining growth curves. […] In FIG. 2, a black rhombus indicates a case using RCP-1, and a black square indicates a case using RCP-11.
From the increase and decrease in the obtained number of cells, the doubling time was calculated. As a result, it was confirmed that it takes 46.4±2.1 hours for the number of cells to be doubled in a case where RCP-1 is used, and 67.7±2.1 hours in a case where RCP-11 is used.

iPS cells [4] = assay: Evaluation of maintenance of undifferentiated state (colony form, NANOG staining); assay type: cell-based, human; details: FIGS. 4A to 4E; after culture for 1 month
Experimental: iPS cells collected in the same manner as in <Cell adhesiveness evaluation 1> were suspended in TeSR2. The iPS cells were seeded into 6-well plate (Tissue culture-treated, Falcon), onto which each of the samples 1, 2, 5, 6, and 7 used in <Cell adhesiveness evaluation 1> was adsorbed in the same manner as in <Cell adhesiveness evaluation 1>, and cultured in a CO2 incubator at 37° C. Except for the day after the seeding, the medium was replaced every day. In the same method as described above, the cells were subcultured every six days. FIGS. 3A to 3E show forms of the iPS cells cultured on each of the samples.
After being cultured for 1 month under the conditions described above, the cells were immobilized using 4% paraformaldehyde and treated with 1% Triton-X/PBS so as to enhance the membrane permeability. After the cells were subjected to a blocking treatment using an IMAGE IT SIGNAL ENHANCER (trade name, Invitrogen), an anti-human NANOG antibody (AF 1997, R&D Systems, Inc.), an ALEXA FLUOR 555 binding rabbit anti-goat IgG antibody (Invitrogen), and DAPI (Dojindo Molecular Technologies, Inc.) were added thereto for labeling, and the cells were imaged using a fluorescence microscope. FIGS. 4A to 4E show the fluorescence microscopic images.
FIGS. 3A and 4A show the iPS cells cultured on RCP-1; FIGS. 3B and 4B show the iPS cells cultured on RCP-11; FIGS. 3C and 4C show the iPS cells cultured on natural human vitronectin; FIGS. 3D and 4D show the iPS cells cultured on rLaminin-5; and FIGS. 3E and 4E show the iPS cells cultured on rLaminin-511. The scale bar in the images indicates […]. In FIGS. 3A to 3E, the images on the left side are full images of the colony, and the images on the right side are magnified images. In FIGS. 4A to 4E, the images on the left side are images of the cells stained with DAPI, and the images on the right side are images of the cells stained with an anti-NANOG antibody. The scale bar in FIGS. 3A to 4E indicates 200 μm.

Molecule | Aggregation [1] | adhesiveness of iPS cells (in words) (iPS cells [2]) | cell growth properties (in words) (iPS cells [3]) | NANOG expression / maintenance of undifferentiated state (iPS cells [4]) | number of cells on Day 8 of culture, as fraction of the case where RCP-1 was used (iPS cells [3])
RCP-1: recombinant polypeptide SEQ ID NO: 14; human vitronectin positions 1-55, 269-459, methionine on N-terminal (protein, Synthetic peptide RCP-1) MDQESCKGRCTEGFNVDKKCQCDELCSYYQSCCTDYTAECKPQVTRGDVFTMPEDEPSQEECEGSSLSAVFEHFAMMQRDSWEDIFELLFWGRTSAGTRQPQFISRDWHGVPGQVDAAMAGRIYISGMAPRPSLAKKQRFRHRNRKGYRSQRGHSRGRNQNSRRPSRATWLSLFSSEESNLGANNYDDYRMDWLVPATCEPIQSVFFFSGDKYYRVNLRTRRVDTVDPPYPRSIAQYWLGCPAPGHL | A (The formation of particles having a particle size of about 100 nm was observed.) | equivalent to the cell adhesion rate of the natural vitronection | higher cell growth properties compared to RCP-11 | strongly expressed NANOG in the entirety of the colony | –
RCP-11: recombinant polypeptide SEQ ID NO: 24; positions 1-459, corresponds to the sequence of natural human vitronectin, GPLG on N-terminal (protein, GPLG N-terminal extension; Synthetic peptide RCP-11) GPLGDQESCKGRCTEGFNVDKKCQCDELCSYYQSCCTDYTAECKPQVTRGDVFTMPEDEYTVYDDGEEKNNATVHEQVGGPSLTSDLQAQSKGNPEQTPVLKPEEEAPAPEVGASKPEGIDSRPETLHPGRPQPPAEEELCSGKPFDAFTDLKNGSLFAFRGQYCYELDEKAVRPGYPKLIRDVWGIEGPIDAAFTRINCQGKTYLFKGSQYWRFEDGVLDPDYPRNISDGFDGIPDNVDAALALPAHSYSGRERVYFFKGKQYWEYQFQHQPSQEECEGSSLSAVFEHFAMMQRDSWEDIFELLFWGRTSAGTRQPQFISRDWHGVPGQVDAAMAGRIYISGMAPRPSLAKKQRFRHRNRKGYRSQRGHSRGRNQNSRRPSRATWLSLFSSEESNLGANNYDDYRMDWLVPATCEPIQSVFFFSGDKYYRVNLRTRRVDTVDPPYPRSIAQYWLGCPAPGHL | – | – | – | strongly expressed NANOG in the entirety of the colony | about ⅓
